# Source: article doi:10.1101/2022.12.21.521423 (bioRxiv, 2022)
# B1: FGF13A ExonS-biotin (peptide)
# peptide: MAAAIASSLIRQKRQAREREKSNACKCVSSPSKGKTSCDKNKLNVFSRVKLFGSKKRRRRRPE
# modifications: also: biotin (position not given here)
# How the values were obtained:
# HA-LRRC37B-ECTO = HA-LRRC37B-ECTO (human, UniProt Q96QE4 28-905); assay: cell-surface binding assay
# HA-LRRC37B-LRR-ECTO = HA-LRRC37B-LRR-ECTO (human, UniProt Q96QE4 468-841); assay: cell-surface binding assay
# HA-LRRC37B-LRR-ECTO, sequence (Q96QE4 468-841): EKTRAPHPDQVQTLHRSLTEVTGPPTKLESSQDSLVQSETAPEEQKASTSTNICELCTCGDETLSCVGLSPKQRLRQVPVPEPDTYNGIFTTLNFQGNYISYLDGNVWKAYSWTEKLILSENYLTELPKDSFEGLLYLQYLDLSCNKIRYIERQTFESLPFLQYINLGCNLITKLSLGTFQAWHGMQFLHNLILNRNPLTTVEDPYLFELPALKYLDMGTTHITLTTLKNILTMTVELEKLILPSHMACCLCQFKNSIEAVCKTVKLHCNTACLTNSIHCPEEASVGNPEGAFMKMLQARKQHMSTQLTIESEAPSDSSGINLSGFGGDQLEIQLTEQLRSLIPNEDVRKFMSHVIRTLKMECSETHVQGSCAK
# HA-LRRC37B-ECTO, sequence (Q96QE4 28-905): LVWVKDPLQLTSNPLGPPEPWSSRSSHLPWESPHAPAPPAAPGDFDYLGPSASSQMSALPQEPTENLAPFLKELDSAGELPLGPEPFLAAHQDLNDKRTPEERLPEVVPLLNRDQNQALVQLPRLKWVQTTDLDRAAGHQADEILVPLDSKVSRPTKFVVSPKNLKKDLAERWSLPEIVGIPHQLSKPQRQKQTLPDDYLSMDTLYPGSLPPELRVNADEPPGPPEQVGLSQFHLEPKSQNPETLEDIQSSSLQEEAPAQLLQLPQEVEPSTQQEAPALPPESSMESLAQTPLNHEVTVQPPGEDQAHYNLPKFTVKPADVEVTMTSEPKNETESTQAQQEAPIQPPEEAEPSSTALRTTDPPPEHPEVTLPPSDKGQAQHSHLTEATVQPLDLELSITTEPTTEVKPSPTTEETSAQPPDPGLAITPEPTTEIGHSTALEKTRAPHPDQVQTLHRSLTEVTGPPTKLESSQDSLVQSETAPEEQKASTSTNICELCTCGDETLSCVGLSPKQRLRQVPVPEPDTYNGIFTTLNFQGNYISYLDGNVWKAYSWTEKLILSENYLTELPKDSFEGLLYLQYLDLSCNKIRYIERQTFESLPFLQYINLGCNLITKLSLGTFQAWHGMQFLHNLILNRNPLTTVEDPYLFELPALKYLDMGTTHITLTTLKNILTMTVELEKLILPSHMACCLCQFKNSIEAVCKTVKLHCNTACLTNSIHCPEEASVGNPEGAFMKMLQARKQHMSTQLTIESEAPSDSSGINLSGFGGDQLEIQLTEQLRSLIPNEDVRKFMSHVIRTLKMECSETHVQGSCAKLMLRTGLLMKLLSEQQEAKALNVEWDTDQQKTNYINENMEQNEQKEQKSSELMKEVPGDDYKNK
binder,measurement,setting,value
B1,Kd,HA-LRRC37B-ECTO,2.29 ± 1.04 nM
same,Kd,HA-LRRC37B-LRR-ECTO,1.18 ± 0.718 nM
